Reference: patent US8729012, “Controllable assembly and disassembly of nanoparticle systems via protein and DNA agents” (Brookhaven Science Associates, LLC)

Assays:
[1] = biological target: T1, gene 5 protein (g5p) (bacteriophage M13, UniProt P69544 P69544:1-87); assay: EMSA; three sequential stages: anti-parallel ssDNA region shifted at 10 uM g5p, then ssDNA tail, then dsDNA over 35 uM; 1 uM DNA, 10 mM Tris-HCl pH 7.4, 200 mM NaCl; settings: tags: His-tag (pET-30b, expressed in E. coli BL21-DE3; gene from NEB M13); chain copies: 2 inferred (homodimer); 19 bp duplex, two anti-parallel T32 single strands, 3' ssDNA tail of 15 nt
T1 sequence: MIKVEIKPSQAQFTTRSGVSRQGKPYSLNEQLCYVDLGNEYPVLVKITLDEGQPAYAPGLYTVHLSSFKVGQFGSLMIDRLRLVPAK
Method: To study the distinct binding properties of g5p and its preferential DNA topology, an exemplary DNA structure with three distinct regions has been designed: a 19 base paired double-stranded DNA (dsDNA) region, followed by a 32 nucleotide anti-parallel poly-T ssDNA region, and a 3' extended ssDNA tail of 15 nucleotides. The DNA structure ([…]) was titrated with g5p (in 10 mM Tris-HCl, pH=7.4, 200 mM NaCl), and g5p binding was studied using the electrophoretic mobility shift assay. […] Since g5p has a much lower affinity to dsDNA than to ssDNA at high salt concentration, the following order of occupancy is hypothesized: binding to the anti-parallel ssDNA region with a large shift of the DNA band at 10 μM g5p, followed by binding to the ssDNA tail, and finally to dsDNA at g5p concentrations over 35 μM. Thus, g5p binds to ssDNA regions before it binds to the dsDNA region, and its binding affinity for the anti-parallel region is slightly higher than for the ssDNA tail. […] By comparing the intensity of the band in the presence of 30 μM g5p to the band under control conditions without g5p, the hybridization efficiency for C-ssDNA to the g5p-complexed ssDNA tail was determined to be approximately 82%, indicating effective DNA hybridization without significant inhibition by g5p. […]

[2] = biological target: T1, gene 5 protein (g5p); assay: EMSA; C-ssDNA added to the complex; 20 and 30 uM g5p shifts collapse to one band of higher mobility (anti-parallel region bound); tail hybridization about 82% at 30 uM g5p; settings: tags: His-tag (pET-30b, expressed in E. coli BL21-DE3; gene from NEB M13); chain copies: 2 inferred (homodimer); 19 bp duplex, anti-parallel T32 strands, tail hybridized as 15 bp duplex
Method: Since g5p has a much lower affinity to dsDNA than to ssDNA at high salt concentration, the following order of occupancy is hypothesized: binding to the anti-parallel ssDNA region with a large shift of the DNA band at 10 μM g5p, followed by binding to the ssDNA tail, and finally to dsDNA at g5p concentrations over 35 μM. Thus, g5p binds to ssDNA regions before it binds to the dsDNA region, and its binding affinity for the anti-parallel region is slightly higher than for the ssDNA tail. To study the effect of g5p association on forming dsDNA heteroduplexes, and confirm the proposed binding order to the ssDNA regions, an equal amount (1 μM) of C-ssDNA that can hybridize to the ssDNA tail was added. […] Smearing of the band after C-ssDNA addition at 45 μM g5p supports g5p binding to dsDNA at this concentration. […]
(§1) The DNA for the binding study was obtained by annealing of two ssDNA with sequences, 5'-GACCACATACCGCAC-CATC(T)$32$CTGCTACGAGACTTC-3' (SEQ ID NO. 7) and 5'-(T)$32$GATGGTGCGGTATGTGGTC-3' (SEQ ID NO. 8), respectively. […] Relative intensities of the DNA bands were analyzed after ethidium bromide staining Characterization UV-Visible spectra were obtained using a PerkinElmer Lambda 35 spectrometer. DLS was measured using a Malvern Zetasizer ZS instrument that is equipped with a 633 nm laser and a backscattering detector at 173°.

[3] = biological target: T2, YieF (UniProt P0AGE6 P0AGE6:1-188); assay: negative control, no aggregation by DLS (2.5 uM) or UV-vis (15 uM); settings: tags: polyhistidine
T2 sequence: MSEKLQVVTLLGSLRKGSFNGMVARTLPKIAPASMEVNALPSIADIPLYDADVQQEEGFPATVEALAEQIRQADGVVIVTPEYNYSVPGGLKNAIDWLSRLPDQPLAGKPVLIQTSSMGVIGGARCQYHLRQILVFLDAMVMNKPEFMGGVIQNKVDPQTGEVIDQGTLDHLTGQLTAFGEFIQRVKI
Method: (§2) The SP band is associated with isolated Au and assembled nanostructures. After adding increased g5p concentrations, the SP band at 525 nm of isolated ssDNA-Au was red-shifted with band broadening, indicative of either a decrease in interparticle distances or an increase of aggregate size (FIG. 7B). The higher extinction intensity observed over 10 μM g5p is due to a […] of the solution's turbidity resulting from the formation of larger aggregates. […] The sizes and morphologies of the g5p-mediated ssDNA-Au assemblies were studied using transmission electron microscopy (TEM) (FIG. 7C). […] Polyhistidine-tagged YieF protein (MW=20 KDa) was used as a negative control, for which no aggregation of particles was observed during DLS and UV-vis studies (FIGS. 8A and 8B).
as §1, with “respectively. The annealed DNA (1 µM) was incubated with g5p at 37° C. for 10 minutes.” for “respectively.”, “173°. […]” for “173°.”

[4] = biological target: T1, gene 5 protein (g5p); assay: g5p-dependent nanoparticle assembly by DLS, UV-vis, TEM; 10 mM Tris-HCl pH 7.44, 200 mM NaCl; settings: tags: His-tag (pET-30b, expressed in E. coli BL21-DE3; gene from NEB M13); chain copies: 2 inferred (homodimer)
Method: as §2
as §1, with “respectively. The annealed DNA (1 µM) was incubated with g5p at 37° C. for 10 minutes.” for “respectively.”, “173°. […]” for “173°.”

B1: annealed 19 bp dsDNA / anti-parallel poly-T32 / 15 nt ssDNA tail (structured_DNA)
DNA 1: GACCACATACCGCACCATCTTTTTTTTTTTTTTTTTTTTTTTTTTTTTTTTCTGCTACGAGACTTC
DNA 2: TTTTTTTTTTTTTTTTTTTTTTTTTTTTTTTTGATGGTGCGGTATGTGGTC
Does B1 bind [1]?
Result: binds

B2: annealed DNA with tail hybridized to C-ssDNA (structured_DNA)
DNA 1: GACCACATACCGCACCATCTTTTTTTTTTTTTTTTTTTTTTTTTTTTTTTTCTGCTACGAGACTTC
DNA 2: TTTTTTTTTTTTTTTTTTTTTTTTTTTTTTTTGATGGTGCGGTATGTGGTC
DNA 3: GAAGTCTCGTAGCAG
Does B2 bind [2]?
Result: binds

Does TTTTTTTTTTTTTTTTAACCTAACCTTCAT (ssDNA, 5'-HS-C3H6, about 50 copies per gold nanoparticle) [ssDNA on gold nanoparticles (ssDNA-Au)] bind [3]?
Result: no binding

Does TTTTTTTTTTTTTTTTAACCTAACCTTCAT (ssDNA, 5'-HS-C3H6, about 50 copies per gold nanoparticle) [ssDNA on gold nanoparticles (ssDNA-Au)] bind [4]?
Result: binds
